From patent US20220025071A1 (BIOMOLECULAR, published 2022)

T1: CD19 (UniProt P15391 20-291)
T1 sequence (looked up): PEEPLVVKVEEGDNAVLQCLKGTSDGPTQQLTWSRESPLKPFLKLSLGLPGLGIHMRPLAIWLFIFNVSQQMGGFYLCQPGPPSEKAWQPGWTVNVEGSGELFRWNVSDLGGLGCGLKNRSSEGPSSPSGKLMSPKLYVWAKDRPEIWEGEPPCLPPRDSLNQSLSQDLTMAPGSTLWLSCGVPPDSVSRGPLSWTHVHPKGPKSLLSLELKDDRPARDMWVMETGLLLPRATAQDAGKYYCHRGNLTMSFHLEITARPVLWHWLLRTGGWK

T2: Recombinant human Fc gamma receptor IIb/c, CD32b/c (human, UniProt P31994 46-217)
T2 construct: also called FcRγIIb
T2 sequence (looked up): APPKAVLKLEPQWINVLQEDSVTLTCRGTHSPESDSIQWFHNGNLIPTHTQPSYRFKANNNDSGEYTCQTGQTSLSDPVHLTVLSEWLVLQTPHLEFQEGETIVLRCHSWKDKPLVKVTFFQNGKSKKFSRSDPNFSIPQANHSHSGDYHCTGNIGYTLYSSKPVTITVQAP

B1: B19c66 (one-arm antibody) (antibody, human IgG1, kappa)
light: not shown
heavy: not shown
chain: CPPCPAPELLGGPSVFLFPPKPKDTLMISRTPEVTCVVVDVSHEDPEVKFNWYVDGVEVHNAKTKPREEQYNSTYRVVSVLTVLHQDWLNGKEYKCKVSNKALPAPIEKTISKAKGQPREPQVYVYPPSRDELTKNQVSLTCLVKGFYPSDIAVEWESNGQPENNYKTTPPVLDSDGSFALVSKLTVDKSRWQQGNVFSCSVMHEALHNHYTQKSLSLSPGK
B2: ACE2Fc-740HA201RF/O24A-DHS (bispecific antibody)
chain: not shown
light: not shown
heavy: QAYLQQSGAELVRPGASVKMSCKASGYTFTSYSMHWVKQTPRQGLEWIGAIYPGNDDTSYNQKFKGKATLTVDRSSSTAYMQLSSLTSEDSAVYFCTRDYSNYPFDYWGQGTTLTVSSASTKGPSVFPLAPSSKSTSGGTAALGCLVKDYFPEPVTVSWNSGALTSGVHTFPAVLQSSGLYSLSSVVTVPSSSLGTQTYICNVNHKPSNTKVDKKVEPKSCDKTHTCPPCPAPELLGGPSVFLFPPKPKDTLMISRTPEVTCVVVDVSHEDPEVKFNWYVDGVEVHNAKTKPREEQYNSTYRVVSVLTVDHHDWLNGKEYKCKVSNKALPAPIEKTISKAKGQPREPQVYTLPPCRDELTKNQVSLWCLVKGFYPSDIAVEWESNGQPENNYKTTPPVLDSDGSFFLYSKLTVDKSRWQQGNVFSCSVMHEALHSHYTQKSLSLSPG
notes: also called 15-23

How the values were obtained:
[1] = molecular target: Recombinant human Fc gamma receptor IIIa, CD16a 158V (human, UniProt P08637 17-208)
CD19 = molecular target: T1, CD19
[2] = molecular target: T2, Recombinant human Fc gamma receptor …; assay: SPR (Carterra LSA)

Chain of Recombinant human Fc gamma receptor IIIa, CD16a 158V (P08637 17-208 F176V limits assumed): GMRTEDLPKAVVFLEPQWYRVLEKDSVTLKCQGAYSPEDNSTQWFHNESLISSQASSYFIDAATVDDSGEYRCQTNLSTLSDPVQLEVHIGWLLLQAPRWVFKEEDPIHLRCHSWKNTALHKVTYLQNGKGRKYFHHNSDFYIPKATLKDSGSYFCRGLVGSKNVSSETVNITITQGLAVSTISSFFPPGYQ

| Binder | Kd [1] [nM] | Kd (CD19) [nM] | binding result [2] |
| --- | --- | --- | --- |
| B1 | 234 | 21.8 |  |
| B2 |  |  | no binding (tested: up to 2000 nM) |
